Laboratory results taken from patent publication US20170145472.

Molecular target: T1, HCV NS3 helicase (Hepatitis C virus) (UniProt P26663)
T1 sequence: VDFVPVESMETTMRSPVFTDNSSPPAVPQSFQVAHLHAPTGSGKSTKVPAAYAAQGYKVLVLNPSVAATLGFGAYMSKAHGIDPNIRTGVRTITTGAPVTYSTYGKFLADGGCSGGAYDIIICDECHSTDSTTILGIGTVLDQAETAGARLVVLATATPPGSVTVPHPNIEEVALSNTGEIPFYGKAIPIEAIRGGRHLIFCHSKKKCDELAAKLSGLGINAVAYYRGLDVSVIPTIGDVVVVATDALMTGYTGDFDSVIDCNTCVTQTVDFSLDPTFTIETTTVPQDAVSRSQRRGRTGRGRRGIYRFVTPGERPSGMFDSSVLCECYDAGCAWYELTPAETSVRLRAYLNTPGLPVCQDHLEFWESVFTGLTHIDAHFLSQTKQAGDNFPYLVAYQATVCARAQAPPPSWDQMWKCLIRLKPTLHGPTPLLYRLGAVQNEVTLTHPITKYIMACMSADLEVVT

GTGGGTAGGGCGGGTTGGTGGCGACGGCAGCGAGGCAGAGGAGCAGAGGGAGCA / GCCTCGCTGCCGTCGCCACCAACCCGCCC [ON1/ON2 duplex substrate]
activity (fold luminescence enhancement): 4.5
